Results reported in paper PMC13530268.
Where two headings read alike, the source gives them in different places. Blank lines part the entries; values can stand above or below the molecule they belong to.

Columns and labels:
[1] = target: PHOX2B Q46K homeodomain protein (human); experiment: native gel or EMSA
[2] = target: ALX4 homeodomain protein (amino acids 209-274) (human) (UniProt Q9H161); experiment: native gel or EMSA
[3] = target: PHOX2B Q46R homeodomain protein (human); experiment: native gel or EMSA
[4] = target: OTP homeodomain protein (amino acids 99-164) (human) (UniProt Q5XKR4); experiment: native gel or EMSA
[5] = target: PITX3 homeodomain protein (66 amino acid region) (human); experiment: native gel or EMSA
CRX HD [6] = target: T1, CRX HD (Homo sapiens, UniProt O43186 34-99); experiment: EMSA
CRX HD K50Q [7] = target: T2, CRX HD K50Q (Homo sapiens, UniProt O43186 34-99, K88Q); experiment: EMSA
CRX HD E4N;K50Q [8] = target: T3, CRX HD E4N;K50Q (Homo sapiens, UniProt O43186 34-99, E42N;K88Q); experiment: EMSA
CRX HD E4K = CRX HD E4K (Homo sapiens, UniProt O43186 34-99, E42K); experiment: EMSA
CRX HD R3Q = CRX HD R3Q (Homo sapiens, UniProt O43186 34-99, R41Q); experiment: EMSA
CRX HD R2Q [9] = target: T4, CRX HD R2Q (Homo sapiens, UniProt O43186 34-99, R40Q); experiment: EMSA
CRX HD [10] = target: T1, CRX HD; experiment: EMSA; remark: listed apart in the source
CRX HD K50Q [11] = target: T2, CRX HD K50Q; experiment: EMSA; remark: listed apart in the source
CRX HD E4N;K50Q [12] = target: T3, CRX HD E4N;K50Q; experiment: EMSA; remark: listed apart in the source
CRX HD R2Q [13] = target: T4, CRX HD R2Q; experiment: EMSA; remark: listed apart in the source
CRX HD E4N = CRX HD E4N (Homo sapiens, UniProt O43186 34-99, E42N); experiment: EMSA
ARX HD P26L = ARX HD P26L (Mus musculus, UniProt O35085 326-390, P355L); experiment: EMSA
PHOX2B HD R44G = PHOX2B HD R44G (Homo sapiens, UniProt Q99453 94-158, R141G); experiment: EMSA
Chain of PHOX2B HD R44G (Q99453 94-158 R141G): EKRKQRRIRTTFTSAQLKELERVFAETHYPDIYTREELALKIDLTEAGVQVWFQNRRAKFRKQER

T3 sequence (O43186 34-99 E42N/K88Q): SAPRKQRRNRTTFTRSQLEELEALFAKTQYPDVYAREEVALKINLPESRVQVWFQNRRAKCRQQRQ
T2 sequence (O43186 34-99 K88Q): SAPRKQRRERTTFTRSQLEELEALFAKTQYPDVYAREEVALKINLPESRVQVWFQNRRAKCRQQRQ
T1 sequence (O43186 34-99): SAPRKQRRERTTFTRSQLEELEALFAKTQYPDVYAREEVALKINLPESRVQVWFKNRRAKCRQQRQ
T4 sequence (O43186 34-99 R40Q): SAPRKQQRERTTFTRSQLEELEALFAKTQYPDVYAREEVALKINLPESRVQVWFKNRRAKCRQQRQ
Chain of ARX HD P26L (O35085 326-390 P355L): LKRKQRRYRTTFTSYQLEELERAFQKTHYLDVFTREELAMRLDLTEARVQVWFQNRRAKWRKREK
Chain of CRX HD R3Q (O43186 34-99 R41Q): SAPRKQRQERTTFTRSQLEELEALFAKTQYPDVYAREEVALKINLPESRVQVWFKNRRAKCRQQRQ
Chain of CRX HD E4K (O43186 34-99 E42K): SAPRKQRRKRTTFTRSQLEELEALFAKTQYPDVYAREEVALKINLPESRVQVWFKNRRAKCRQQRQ
Chain of CRX HD E4N (O43186 34-99 E42N): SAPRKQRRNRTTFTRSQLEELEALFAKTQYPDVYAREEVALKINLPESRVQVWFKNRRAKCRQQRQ

B1: P4K (dsDNA)
DNA 1: TGTGTCTTAATCCGGATTAACGCACTTGATAGTGCGGGCGTGGCT
DNA 2: AGCCACGCCCGCACTATCAAGTGCGTTAATCCGGATTAAGACACA
binding result (CRX HD [6]): binds

B2: Q50 monomer (TAATTA) (dsDNA)
DNA 1: CGGGCTAATTAGGCCTAGTGCGGGCGTGGCT
DNA 2: AGCCACGCCCGCACTAGGCCTAATTAGCCCG
binding result (CRX HD K50Q [7]): binds
binding result (CRX HD E4N;K50Q [8]): binds

B3: K50 monomer (TAATCC) (dsDNA)
DNA 1: CGGGCTAATCCGGCCTAGTGCGGGCGTGGCT
DNA 2: AGCCACGCCCGCACTAGGCCGGATTAGCCCG
binding result (CRX HD E4K): binds
binding result (CRX HD R3Q): binds
binding result (CRX HD R2Q [9]): binds

B4: P3K (dsDNA)
DNA 1: TGTGTCTTAATCCGATTAACGCACTTGATAGTGCGGGCGTGGCT
DNA 2: AGCCACGCCCGCACTATCAAGTGCGTTAATCGGATTAAGACACA
binding signal (CRX HD [10]): 8.94 ± 1.78 Tau
binding signal (CRX HD K50Q [11]): 340 ± 161 Tau
binding signal (CRX HD E4N;K50Q [12]): 395 ± 90.1 Tau
binding result (CRX HD R2Q [13]): binds
binding result (CRX HD E4N): binds

B5: P3Q (dsDNA)
DNA 1: TGTGTCTTAATTAGATTAACGCACTTGATAGTGCGGGCGTGGCT
DNA 2: AGCCACGCCCGCACTATCAAGTGCGTTAATCTAATTAAGACACA
binding signal (ARX HD P26L): ~10 fold decrease in Tau vs WT
binding result (PHOX2B HD R44G): no binding
binding signal (CRX HD K50Q [11]): 54.6 ± 2.72 Tau
binding signal (CRX HD E4N;K50Q [12]): 112 ± 12.1 Tau

More lines, now with the values ahead:

Tau with P3Q DNA [1]: 0.9
Molecule: PHOX2B Q46K homeodomain protein (domain or fragment)

Tau with P4Q DNA [2]: 0.792
Molecule: ALX4 homeodomain protein (amino acids 209-274) (from UniProt Q9H161 209-274) (domain or fragment)

Tau with P3Q DNA [3]: 1.27
Molecule: PHOX2B Q46R homeodomain protein (domain or fragment)

Tau with P4Q DNA [4]: 0.29
Molecule: OTP homeodomain protein (amino acids 99-164) (from UniProt Q5XKR4 99-164) (domain or fragment)

Tau with P3K DNA [5]: 0.157
Molecule: PITX3 homeodomain protein (66 amino acid region) (domain or fragment)
